Source: patent US20140057807A1 (UNIVERSITY OF CHICAGO, published 2014)

B1: SEQ ID NO 182 (designed binder)
chain: PLSPPANLRLEANPDTGVLTVSWERSTTPDITRYVIATGYGGSWYHLEEVVHADQSRCTFDNLSPGLAYYVDVYTVTPGEKHSPISDTIIP
B2: SEQ ID NO 189 (designed binder)
chain: PLSPPTNLHLEANPDTGVLTVSWERSTTPDITYYSITTSFYYSELEEVVHADQSSCTFDNLSPGLKYMVSVSTVSYSVGSPISDTIIP
B3: SEQ ID NO 179 (designed binder)
chain: PLSPPTNLHLEANPDTGVLTVSWERSTTPDITMYDIKTIYYKAYYYGLEEVVHADQSSCTFDNLSPGLYYFVGVVTVERPRYYPISDTIIP
B4: SEQ ID NO 193 (designed binder)
chain: PLSPPTNLHLEANPDTGVLTVSWERSTTPDITMYGIVTIYTRYYSLEEVVHADQSSCTFDNLSPGLIYWVYVLTVYYSWYRPISDTIIP
B5: SEQ ID NO 191 (designed binder)
chain: PLSPPTNLHLEANPDTGVLTVSWERSTTPDITRYYIRTSYVRHGRLEEVVHADQSSCTFDNLSPGLYYNVSVSTVGYYYMLPISDTIIP
B6: SEQ ID NO 196 (designed binder)
chain: PLSPPTNLHLEANPDTGVLTVSWERSTTPDITYYYIHTYYWKHWQSLEEVVHADQSSCTFDNLSPGLKYGVWVSTVYRVVYYPISDTIIP
B7: SEQ ID NO 164 (designed binder)
chain: PLSPPTNLHLEANPDTGVLTVSWERSTTPDITYYEINTTGYYGFYPGGLEEVVHADQSSCTFDNLSPGLYYQVTVQTVVYSMWYHPISDTIIP
B8: SEQ ID NO 176 (designed binder)
chain: PLSPPTNLHLEANPDTGVLTVSWERSTTPDITKYIIYTGYGASYDLEEVVHADQSSCTFDNLSPGLKYTVTVWTVSYASQVPISDTIIP
B9: SEQ ID NO 172 (designed binder)
chain: PLSPPTNLHLEANPDTGVLTVSWERSTTPDITYYSIDTWTFGQWGLEEVVHADQSSCTFDNLSPGLYYYVEVVTVYEWAYSYPISDTIIP
B10: SEQ ID NO 188 (designed binder)
chain: PLSPPTNLHLEANPDTGVLTVSWERSTTPDITKYYILTSGYWGGGLEEVVHADQSSCTFDNLSPGLTYLVSVWTVTHYAGYPISDTIIP
B11: SEQ ID NO 169 (designed binder)
chain: PLSPPTNLHLEANPDTGVLTVSWERSTTPDITDYYIITRSRWGYLEEVVHADQSSCTFDNLSPGLRYHVYVWTVGHYRDPISDTIIP
B12: SEQ ID NO 180 (designed binder)
chain: PLSPPTNLHLEANPDTGVLTVSWERSTTPDITYYYIDTNGGYWSYLEEVVHADQSSCTFDNLSPGLGYPVGYVRTVYAGWLKGPISDTIIP
B13: SEQ ID NO 187 (designed binder)
chain: PLSPPTNLHLEANPDTGVLTVSWERSTTSDITKYYIATWFGDYGYSLEEVVHADQSSCTFDNLSPGLQYGVSVATVKGGQAHYPISDTIIP
B14: SEQ ID NO 163 (designed binder)
chain: SLSPPTNLHLEANPDTGVLTVGWERSTTPGITSYSIDTAKDDVPYLEEVVHADQSSCTFDNLSPGLNYTVVVATVGWSVDGPISDTIIP
B15: SEQ ID NO 198 (designed binder)
chain: PLSPPTNLHLEANPDTGVLTVSWERSTTPDITVYYIYTYTYNADLILEEVVHADQSSCTFDNLSPGLIYSVYVGTVASDDGRPISDTIIP
B16: SEQ ID NO 186 (designed binder)
chain: PLSPPTNLHLEANPDTGVLTVSWERSTTPDITGYSIATYLTYSNLVGLEEVVHADQSSCTFDNLSPGLSYKVSVYTVYGYSYGPISDTIIP
B17: SEQ ID NO 175 (designed binder)
chain: PLSPPTNLHLEANPDTGVLTVSWERSTTPDITWYWINTSLANVRMSLEEVVHADQSGCTFDNLSPGLYYDVQVRTVSAAEGYPISDTIIP
B18: SEQ ID NO 174 (designed binder)
chain: PLSPPTNLHLEANPDTGVLTVSWERSTTPDITDYNISTWLYTSVSVYTELEEVVHAGQSSCTFDNLSPGLAYVVYVWSTVWEHFYPSPISDTIIP
B19: SEQ ID NO 185 (designed binder)
chain: PLSPPTNLHLEANPDTGVLTVSWERSTTPDITMYYISTGGSSYKPDRLEEVVHADQSSCTFDNLSPGLDYMVYVRTVMYYNRSPISDTIIP
B20: SEQ ID NO 202 (designed binder)
chain: VSDVPRDLEVVAATPTSLLISWDAPAVTVRYYYILYGDYNAYMDYAGQEFTVPGSKSTATISGLKPGVGYVEIDVYAVRTSEEQPISINYRT
B21: SEQ ID NO 161 (designed binder)
chain: PLSPPTNLHLEANPDTGVLTVSWERSTTRDITTYGIETEYDHSVGLEEVVHADQSSCTFDNLSPGLNYDVEVVTVGWGVYQRPISDTIIP
B22: SEQ ID NO 194 (designed binder)
chain: PLSPPTNLHLEANPDTGVLTVSWERSTTPDITTYVIDTGAAVNYVLEEVVHADQSSCTFDNLSPGLQYSVDVVVTVWYSWYMPISDTIIP
B23: SEQ ID NO 177 (designed binder)
chain: PLSPPTNLHLEANPDTGVLTVSWERSTTPDITMYSIYTYDYTRNYVLEEAVHADQSSCTFDNLSPGLYGYYVGVGTVTGAGWHPISDTIIP
B24: SEQ ID NO 197 (designed binder)
chain: PLSPPTNLHLEASPDTGVLTVSWERSTTPDITTYLILTYLGYSRVLEEVVHADQSSCTFDNLSPGLWYMVYVDTVGRVPYIGPISDTIIP
B25: SEQ ID NO 181 (designed binder)
chain: PLSPPTNLHLEANPDTGVLTVSWERSTTPDITYYYIGTYQGTTYEHLEEVVHADQSSCTFDNLSPGLIYLVYVSTVYWDSMSSPISDTIIP
B26: SEQ ID NO 170 (designed binder)
chain: PLSPPTNLHLEANPDTGVLTVSWERSTTPDITNYLIQTDYFAFIKGVLEEVVHADQSSCTFDNLSPGLYYYVGVDTVSVPSHGPISDTIIP
B27: SEQ ID NO 167 (designed binder)
chain: PLSPPTNLHLEANPDTGVLTVSWERSTTPDVTTYSIYTYGYWDSHYMSLEEVVHADQSRCTFDNLSPGLYYSVEVYTVYYGLYVVPISDTIIP
B28: SEQ ID NO 173 (designed binder)
chain: PLSPPTNLHLEANPDTGVLTVSWERSTTPDITMYAITTYEYSRAWQYLEEVVHADQSSCTFDNLSPGLTYYVEVYTVRYTWSDPISDTIIP
B29: SEQ ID NO 195 (designed binder)
chain: PLSPPTNPHLEANPDTGVLTVSWERSTTPDITTYWIGTYYSADERLEEVVHADQSSCTFDNLSPGLYYAVVVGTVGVWYRVAPISDTIIP
B30: SEQ ID NO 165 (designed binder)
chain: PLSPPTNLHLEANPDTGVLTVSWERSTTPDITYYGIWTLTWLQYYSYRWGLEEAVHADQSSCTFDNLSPGLVYLVYVGTVRSPMARPISDTIIP
B31: SEQ ID NO 201 (designed binder)
chain: VSDVPRDLEVVAATPTSLLISWDAPAVTVRGYYISYYYHSTRDSQEFTVPGSKSTATISGLKPGVSYYVGVGAVWKKDYYFPISINYRT
B32: SEQ ID NO 168 (designed binder)
chain: PLSPPTNLHLEANPDTGVLTVSWERSTTPDITTYGIETQTVEWVYYLEEVVHADQSSCTFDNLSPGLYYNVTVGTVMLDAAYPISDTIIP
B33: SEQ ID NO 166 (designed binder)
chain: PLSPPTNLHLEANPDTGVLTVSWERSTTPDITWYWIGTWYSGYMVGLEEVVHADQSSCTFDNLSPGLTYWVLVGTVVRSPSRRPISDTIIP
B34: SEQ ID NO 171 (designed binder)
chain: PLSPPTNLHLEANPDTGVLTVSWERSTTPDITYYTIATADYTYSYAHLEEVVHADQSSCTFDNLSPGLNYEVGVGTVSVYSYIGPISDTIIP
B35: SEQ ID NO 183 (designed binder)
chain: PLSPPTNLHLEANPDTGVLTVSWERSTTPDITKYIISTYVDYGGYLEEVVHADQSSCTFDNLSPGLGYSVTVSTVSAGWDSPISDTIIP
B36: SEQ ID NO 178 (designed binder)
chain: PLSPPTNLHLEVNPDTGVLTVSWERSTTPGITQYDIATLSYGGRSGGLEEVVHADQSSCTFDNLSPGLSYVVSVSTVTSNEYSAPISDTIIP
B37: SEQ ID NO 192 (designed binder)
chain: PLSPPTNLHLEANPDTGVLTVSRERSTTPDITTYSIYTHSGALYVLEEVVHADQSSCTFDNPSPGLNYNVSVSTVHSRWRYGPISDTIIP
B38: SEQ ID NO 199 (designed binder)
chain: PLSPPTNLHLEANPDTGVLTVSWERSTTPDITAYVIYTYSESDGRVLEEVVHADQSSCTFDNLSPGLRYSVKVSTVYYSYAYPISDTIIP
B39: SEQ ID NO 184 (designed binder)
chain: PLSPPTNLHLEANPDTGVLTVSWERSTTPDITSYRISTEWRWRYTGLEEVVHADQSSCTFDNLSPGLIYGVGVSTVWKHNSQAPISDTIIP

Biological target: T1, human serum albumin (human, UniProt P02768 25-609)
T1 construct: also called HSA
Experiment: cradle library selection hit

T1 sequence (P02768 25-609 limits assumed): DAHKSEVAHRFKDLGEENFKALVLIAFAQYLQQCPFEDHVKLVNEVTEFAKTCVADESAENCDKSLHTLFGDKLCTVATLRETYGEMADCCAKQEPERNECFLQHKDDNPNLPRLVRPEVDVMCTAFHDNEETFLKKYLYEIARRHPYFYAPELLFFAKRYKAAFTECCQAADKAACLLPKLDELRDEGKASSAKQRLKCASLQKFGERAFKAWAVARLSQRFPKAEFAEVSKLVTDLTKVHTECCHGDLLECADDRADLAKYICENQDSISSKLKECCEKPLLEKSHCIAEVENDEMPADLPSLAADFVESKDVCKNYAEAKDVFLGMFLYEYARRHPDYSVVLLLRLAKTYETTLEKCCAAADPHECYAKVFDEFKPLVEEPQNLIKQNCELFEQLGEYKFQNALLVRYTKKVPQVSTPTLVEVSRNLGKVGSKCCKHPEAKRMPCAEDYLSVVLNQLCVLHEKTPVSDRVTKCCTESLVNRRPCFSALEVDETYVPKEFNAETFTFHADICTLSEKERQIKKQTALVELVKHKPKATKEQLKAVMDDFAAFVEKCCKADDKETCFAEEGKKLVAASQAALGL

Binder	binding result
B1	binds
B2	binds
B3	binds
B4	binds
B5	binds
B6	binds
B7	binds
B8	binds
B9	binds
B10	binds
B11	binds
B12	binds
B13	binds
B14	binds
B15	binds
B16	binds
B17	binds
B18	binds
B19	binds
B20	binds

Binder	binding result
B21	binds
B22	binds
B23	binds
B24	binds
B25	binds
B26	binds
B27	binds
B28	binds
B29	binds
B30	binds
B31	binds
B32	binds
B33	binds
B34	binds
B35	binds
B36	binds
B37	binds
B38	binds
B39	binds
